{"source": "paper PMC8102066", "about": "(eLife, 2021)", "molecules": {"B1": {"name": "SNAP-mGluR3-I788A (protein, UniProt Q14832 23-879, looked up, variant I788A)", "Metabotropic glutamate …": "LGDHNFLRREIKIEGDLVLGGLFPINEKGTGTEECGRINEDRGIQRLEAMLFAIDEINKDDYLLPGVKLGVHILDTCSRDTYALEQSLEFVRASLTKVDEAEYMCPDGSYAIQENIPLLIAGVIGGSYSSVSIQVANLLRLFQIPQISYASTSAKLSDKSRYDYFARTVPPDFYQAKAMAEILRFFNWTYVSTVASEGDYGETGIEAFEQEARLRNICIATAEKVGRSNIRKSYDSVIRELLQKPNARVVVLFMRSDDSRELIAAASRANASFTWVASDGWGAQESIIKGSEHVAYGAITLELASQPVRQFDRYFQSLNPYNNHRNPWFRDFWEQKFQCSLQNKRNHRRVCDKHLAIDSSNYEQESKIMFVVNAVYAMAHALHKMQRTLCPNTTKLCDAMKILDGKKLYKDYLLKINFTAPFNPNKDADSIVKFDTFGDGMGRYNVFNFQNVGGKYSYLKVGHWAETLSLDVNSIHWSRNSVPTSQCSDPCAPNEMKNMQPGDVCCWICIPCEPYEYLADEFTCMDCGSGQWPTADLTGCYDLPEDYIRWEDAWAIGPVTIACLGFMCTCMVVTVFIKHNNTPLVKASGRELCYILLFGVGLSYCMTFFFIAKPSPVICALRRLGLGSSFAICYSALLTKTNCIARIFDGVKNGAQRPKFISPSSQVFICLGLILVQIVMVSVWLILEAPGTRRYTLAEKRETVILKCNVKDSSMLISLTYDVILVILCTVYAFKTRKCPENFNEAKFIGFTMYTTCIIWLAFLPAFYVTSSDYRVQTTTMCISVSLSGFVVLGCLFAPKVHIILFQPQKNVVTHRLHLNRFSVSGTGTTYSQSSASTYVPTVCNGREVLDSTTSSL", "modifications": "N-terminal SNAP tag"}, "B2": {"name": "SNAP-mGluR2 (protein)", "chain": "EGPAKKVLTLEGDLVLGGLFPVHQKGGPAEECGPVNEHRGIQRLEAMLFALDRINRDPHLLPGVRLGAHILDSCSKDTHALEQALDFVRASLSRGADGSRHICPDGSYATHSDAPTAVTGVIGGSYSDVSIQVANLLRLFQIPQISYASTSAKLSDKSRYDYFARTVPPDFFQAKAMAEILRFFNWTYVSTVASEGDYGETGIEAFELEARARNICVATSEKVGRAMSRAAFEGVVRALLQKPSARVAVLFTRSEDARELLAATQRLNASFTWVASDGWGALESVVAGSERAAEGAITIELASYPISDFASYFQSLDPWNNSRNPWFREFWEERFHCSFRQRDCAAHSLRAVPFEQESKIMFVVNAVYAMAHALHNMHRALCPNTTHLCDAMRPVNGRRLYKDFVLNVKFDAPFRPADTDDEVRFDRFGDGIGRYNIFTYLRAGSGRYRYQKVGYWAEGLTLDTSFIPWASPSAGPLPASRCSEPCLQNEVKSVQPGEVCCWLCIPCQPYEYRLDEFTCADCGLGYWPNASLTGCFELPQEYIRWGDAWAVGPVTIACLGALATLFVLGVFVRHNATPVVKASGRELCYILLGGVFLCYCMTFVFIAKPSTAVCTLRRLGLGTAFSVCYSALLTKTNRIARIFGGAREGAQRPRFISPASQVAICLALISGQLLIVAAWLVVEAPGTGKETAPERREVVTLRCNHRDASMLGSLAYNVLLIALCTLYAFKTRKCPENFNEAKFIGFTMYTTCIIWLAFLPIFYVTSSDYRVQTTTMCVSVSLSGSVVLGCLFAPKLHIILFQPQKNVVSHRAPTSRFGSAAPRASANLGQGSGSQFVPTVCNGREVVDSTTSSL", "modifications": "SNAP tag labelled with BG-LD555 (BG-LD655 in two-colour SiMPull); left off: HA, N-terminal, kept | SNAP, N-terminal, kept"}, "B3": {"name": "SNAP-mGluR2-3xTM4 (protein)", "chain": "B2 chain with A659S, A663F, A667G", "modifications": "SNAP tag labelled with BG-LD555; left off: HA, N-terminal, kept | SNAP, N-terminal, kept"}, "B4": {"name": "SNAP-mGluR3 (protein)", "chain": "LGDHNFMRREIKIEGDLVLGGLFPINEKGTGTEECGRINEDRGIQRLEAMLFAIDEINKDNYLLPGVKLGVHILDTCSRDTYALEQSLEFVRASLTKVDEAEYMCPDGSYAIQENIPLLIAGVIGGSYSSVSIQVANLLRLFQIPQISYASTSAKLSDKSRYDYFARTVPPDFYQAKAMAEILRFFNWTYVSTVASEGDYGETGIEAFEQEARLRNICIATAEKVGRSNIRKSYDSVIRELLQKPNARVVVLFMRSDDSRELIAAANRVNASFTWVASDGWGAQESIVKGSEHVAYGAITLELASHPVRQFDRYFQSLNPYNNHRNPWFRDFWEQKFQCSLQNKRNHRQVCDKHLAIDSSNYEQESKIMFVVNAVYAMAHALHKMQRTLCPNTTKLCDAMKILDGKKLYKEYLLKINFTAPFNPNKGADSIVKFDTFGDGMGRYNVFNLQQTGGKYSYLKVGHWAETLSLDVDSIHWSRNSVPTSQCSDPCAPNEMKNMQPGDVCCWICIPCEPYEYLVDEFTCMDCGPGQWPTADLSGCYNLPEDYIKWEDAWAIGPVTIACLGFLCTCIVITVFIKHNNTPLVKASGRELCYILLFGVSLSYCMTFFFIAKPSPVICALRRLGLGTSFAICYSALLTKTNCIARIFDGVKNGAQRPKFISPSSQVFICLGLILVQIVMVSVWLILETPGTRRYTLPEKRETVILKCNVKDSSMLISLTYDVVLVILCTVYAFKTRKCPENFNEAKFIGFTMYTTCIIWLAFLPIFYVTSSDYRVQTTTMCISVSLSGFVVLGCLFAPKVHIVLFQPQKNVVTHRLHLNRFSVSGTATTYSQSSASTYVPTVCNGREVLDSTTSSL", "modifications": "SNAP tag labelled with BG-LD555 (BG-LD655 in two-colour SiMPull); left off: HA, N-terminal, kept | SNAP, N-terminal, kept"}, "B5": {"name": "SNAP-mGluR3-C127A-I788A (protein)", "chain": "B4 chain with C105A, I766A", "modifications": "SNAP tag labelled with BG-LD555; left off: HA, N-terminal, kept | SNAP, N-terminal, kept"}}, "key": {"[1]": {"tested_on": "SNAP-tagged mGluR2 and mGluR3 constructs", "experiment": "Surface expression measurements", "format": "cell-based, rat", "conditions": "construct; single measurements", "source_text": "ImageJ was used to analyze fluorescence intensity of cell clusters. […] Fluorescence intensity values for each construct were normalized to wild-type values for comparison."}, "mGluR2": {"target": "mGluR2 (Rattus norvegicus, UniProt P31421)", "experiment": "Inter-LBD FRET (N-terminal SNAP-tags), live cells", "conditions": "SNAP-mGluR2"}, "mGluR2-3xTM4": {"target": "mGluR2-3xTM4 (Rattus norvegicus, UniProt P31421, A677S/A681F/A685G)", "sequence (P31421 19-872 A677S/A681F/A685G)": "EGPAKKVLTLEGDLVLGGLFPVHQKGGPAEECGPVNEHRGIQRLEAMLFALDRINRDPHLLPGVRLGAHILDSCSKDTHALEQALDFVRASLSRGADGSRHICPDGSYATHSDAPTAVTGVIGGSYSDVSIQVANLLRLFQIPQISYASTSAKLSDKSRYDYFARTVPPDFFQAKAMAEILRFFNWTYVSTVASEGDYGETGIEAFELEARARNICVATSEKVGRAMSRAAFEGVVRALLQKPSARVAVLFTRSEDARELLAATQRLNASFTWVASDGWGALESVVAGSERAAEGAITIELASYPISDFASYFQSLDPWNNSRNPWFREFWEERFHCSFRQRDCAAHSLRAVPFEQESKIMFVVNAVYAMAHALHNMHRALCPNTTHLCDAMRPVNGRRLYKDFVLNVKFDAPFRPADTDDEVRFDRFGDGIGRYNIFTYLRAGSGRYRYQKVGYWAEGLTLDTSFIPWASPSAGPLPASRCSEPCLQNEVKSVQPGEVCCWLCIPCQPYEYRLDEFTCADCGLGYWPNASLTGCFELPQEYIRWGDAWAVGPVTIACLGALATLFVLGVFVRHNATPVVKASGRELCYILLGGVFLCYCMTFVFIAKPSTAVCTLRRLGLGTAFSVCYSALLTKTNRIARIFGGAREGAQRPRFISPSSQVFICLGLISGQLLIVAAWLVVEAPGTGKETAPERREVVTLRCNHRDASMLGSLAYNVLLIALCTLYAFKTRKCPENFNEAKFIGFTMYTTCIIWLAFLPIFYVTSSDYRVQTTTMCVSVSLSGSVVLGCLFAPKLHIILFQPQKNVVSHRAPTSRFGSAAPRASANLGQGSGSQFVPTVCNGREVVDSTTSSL", "experiment": "Inter-LBD FRET (N-terminal SNAP-tags), live cells", "conditions": "SNAP-mGluR2-3xTM4"}, "mGluR3": {"target": "mGluR3 (Rattus norvegicus, UniProt P31422)", "experiment": "Inter-LBD FRET (N-terminal SNAP-tags), live cells", "conditions": "SNAP-mGluR3"}}, "note": "Residue numbers refer to the chain shown, from its start. In names and notes the source's numbering stands. Several values for one entry are separate records, joined by “and”; a condition that tells them apart may be missing. Identical values can stand only once."}
{"molecule": "B1", "values": [{"measurement": "Surface Expression", "setting": "[1]", "value": "1.08 and 0.88 and 0.76 and 0.68 and 0.70 and 0.97 and 0.75"}]}
{"molecule": "B2", "values": [{"measurement": "Basal LBD FRET (%)", "setting": "mGluR2", "value": 0, "unit": "%"}]}
{"molecule": "B3", "values": [{"measurement": "Basal LBD FRET (%)", "setting": "mGluR2-3xTM4", "value": 0, "unit": "%"}]}
{"molecule": "B4", "values": [{"measurement": "Basal LBD FRET (%)", "setting": "mGluR3", "value": "20% and 30% and 23% and 24%"}]}
{"molecule": "B5", "values": [{"measurement": "Surface Expression", "setting": "[1]", "value": "1.29 and 0.91 and 1.30 and 0.67 and 0.74 and 0.86 and 1.22 and 0.70"}]}
